Reference: article PMC9489553, “Biochemical and clinical studies of putative allergens to assess what distinguishes them from other non-allergenic proteins in the same family” (Transgenic Research, 2022)

B1: Cladosporium herbarum mannitol dehydrogenase (enzyme)
chain: MPGQQATKHESLLDQLSLKGKVVVVTGASGPKGMGIEAARGCAEMGAAVAITYASRAQGAEENVKELEKTYGIKAKAYKCQVDSYESCEKLVKDVVADFGQIDAFIANAGATADSGILDGSVEAWNHVVQVDLNGTFHCAKAVGHHFKERGTGSLVITASMSGHIANFPQEQTSYNVAKAGCIHMARSLANEWRDFARVNSISPGYIDTGLSDFVPKETQQLWHSMIPMGRDGLAKELKGAYVYFASDASTYTTGADLLIDGGYTTR
notes: codon-optimised synthetic gene in pET-28a; Crystallised in complex with NADP+; also called ChMDH; C. herbarum MDH; source: E. coli BL21 (DE3), purified (Ni-NTA, size-exclusion chromatography); not shown: His-tag, N-terminal, cleaved
B2: Cladosporium herbarum (aka Davidiella tassiana) aldehyde dehydrogenase (enzyme)
chain: MTSVQLETPHSGKYEQPTGLFINNEFVKGQEGKTFDVINPSDESVITQVHEATEKDVDIAVAAARKAFEGSWRQETPENRGKLLNNLANLFEKNIDLLAAVESLDNGKAISMAKGDISMCVGCLRYYGGWADKITGKVIDTTPDTFNYVKKEPIGVCGQIIPWNFPLLMWAWKIGPAIACGNTVVLKTAEQTPLGGLVAASLVKEAGFPPGVINVISGFGKVAGAALSSHMDVDKVAFTGSTVVGRTILKAAASSNLKKVTLELGGKSPNIVFEDADIDNAISWVNFGIFFNHGQCCCAGSRVYVQESIYDKFVQKFKERAQKNVVGDPFAADTFQGPQVSKVQFDRIMEYIQAGKDAGATVETGGKRKGDKGYFIEPTIFSNVTEDMKIVKEEIFGPVCSIAKFKTKEDAIKLGNASTYGLAAAVHTKNLNTAIEVSNALKAGTVWVNTYNTLHHQMPFGGYKESGIGRELGEDALANYTQTKTVSIRLGDALFG
notes: aldehyde dehydrogenase of Cladosporium herbarum (aka Davidiella tassiana), GenBank CAA55072.2; codon-optimised synthetic gene in pET-28a; Apoenzyme in the crystal; also called ChALDH; C. herbarum ALDH; source: E. coli BL21 (DE3), purified (Ni-NTA, size-exclusion chromatography); not shown: His-tag, N-terminal, cleaved

Key:
[1] = target: the molecule itself; experiment: crystal structure; ChMDH with 5 mM NADP+, hanging drop at 4 °C, 25% PEG-1500, sodium propionate/sodium cacodylate/BIS-TRIS propane pH 7.0; 2.04 Å
[2] = target: the molecule itself; experiment: crystal structure; ChALDH apoenzyme, hanging drop at 4 °C, 20% PEG-100, 100 mM sodium/potassium phosphate pH 6.2, 200 mM NaCl; 3.18 Å

Protein | stoichiometry N [1] | stoichiometry N [2]
B1 | 4 | –
B2 | – | 4
